Assay results published in article PMC3519786, “Novel Interactions between FOXM1 and CDC25A Regulate the Cell Cycle” (PLoS ONE, 2012).

Target: T1, GAL4-FOXM1 C-terminal fragment (amino acids 330-763) (human, UniProt Q08050-1 330-763)
T1 construct: FOXM1, human, C-terminal fragment, amino acids 330-763; from pCMV-XL5-FOXM1B (Origene); also called C-terminal FOXM1; C-terminus of FOXM1; source: mammalian two-hybrid fusion, U2OS, transfected
T1 sequence (looked up): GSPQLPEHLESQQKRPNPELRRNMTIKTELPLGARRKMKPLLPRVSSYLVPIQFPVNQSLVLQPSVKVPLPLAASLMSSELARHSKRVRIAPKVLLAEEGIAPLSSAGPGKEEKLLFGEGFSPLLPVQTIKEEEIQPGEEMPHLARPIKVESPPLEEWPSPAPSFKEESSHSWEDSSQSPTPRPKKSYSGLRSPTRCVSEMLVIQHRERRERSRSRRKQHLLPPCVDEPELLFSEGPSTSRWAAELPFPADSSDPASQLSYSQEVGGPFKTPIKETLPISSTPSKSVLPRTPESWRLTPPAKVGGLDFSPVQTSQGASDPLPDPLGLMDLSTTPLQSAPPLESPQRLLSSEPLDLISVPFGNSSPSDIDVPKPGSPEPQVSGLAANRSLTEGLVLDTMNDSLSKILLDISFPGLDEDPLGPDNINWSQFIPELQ
Assay: two-hybrid; mammalian two-hybrid (Checkmate, Promega) in U2OS; bait pBIND (GAL4 DNA-binding domain)-FOXM1, prey pACT (VP16 activation domain)-CDC25A, reporter pG5-luc; firefly normalised to Renilla luciferase; 2 days
Details: partners not purified

B1: VP16-CDC25A (natural protein, UniProt P30304 1-524, looked up)
chain: MELGPEPPHRRRLLFACSPPPASQPVVKALFGASAAGGLSPVTNLTVTMDQLQGLGSDYEQPLEVKNNSNLQRMGSSESTDSGFCLDSPGPLDSKENLENPMRRIHSLPQKLLGCSPALKRSHSDSLDHDIFQLIDPDENKENEAFEFKKPVRPVSRGCLHSHGLQEGKDLFTQRQNSAPARMLSSNERDSSEPGNFIPLFTPQSPVTATLSDEDDGFVDLLDGENLKNEEETPSCMASLWTAPLVMRTTNLDNRCKLFDSPSLCSSSTRSVLKRPERSQEESPPGSTKRRKSMSGASPKESTNPEKAHETLHQSLSLASSPKGTIENILDNDPRDLIGDFSKGYLFHTVAGKHQDLKYISPEIMASVLNGKFANLIKEFVIIDCRYPYEYEGGHIKGAVNLHMEEEVEDFLLKKPIVPTDGKRVIVVFHCEFSSERGPRMCRYVRERDRLGNEYPKLHYPELYVLKGGYKEFFMKCQSYCEPPSYRPMHHEDFKEDLKKFRTKSRTWAGEKSKREMYSRLKKL
notes: CDC25A (cell division cycle 25A) dual phosphatase; plasmid bought from Origene; also called pACT-CDC25A; wild-type CDC25A; source: mammalian two-hybrid fusion, U2OS, transfected
fold above background (normalised luciferase activity): > 60000 fold
